Assay results published in patent US20180298070A1, “PEPTIDE COMPOUND” (Takeda Pharmaceutical Company Limited, published 2018).
Non-standard residues stand in square brackets, D forms with d. No end group written: not given here. NMeY = CN[C@@H](Cc1ccc(O)cc1)C(=O)O; αMeF = C[C@](N)(Cc1ccccc1)C(=O)O; dIva = CC[C@@](C)(N)C(=O)O; Iva = CC[C@](C)(N)C(=O)O; Aib = CC(C)(N)C(=O)O

How the values were obtained:
[1] = target: T1, human GIPR (human), P48546
T1 chain: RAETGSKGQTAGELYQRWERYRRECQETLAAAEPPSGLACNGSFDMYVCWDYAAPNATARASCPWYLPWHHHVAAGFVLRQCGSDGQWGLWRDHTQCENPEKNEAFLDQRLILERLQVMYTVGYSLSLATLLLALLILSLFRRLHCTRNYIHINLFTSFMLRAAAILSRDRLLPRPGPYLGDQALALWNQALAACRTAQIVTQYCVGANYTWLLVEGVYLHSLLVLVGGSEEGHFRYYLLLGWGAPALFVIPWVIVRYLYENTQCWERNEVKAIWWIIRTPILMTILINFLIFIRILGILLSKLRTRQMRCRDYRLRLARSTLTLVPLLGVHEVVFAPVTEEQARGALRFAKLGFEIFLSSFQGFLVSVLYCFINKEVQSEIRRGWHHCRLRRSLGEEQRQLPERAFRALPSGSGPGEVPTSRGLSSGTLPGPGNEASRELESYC

[2] = target: T2, human GLP-1R (human), P43220
T2 chain: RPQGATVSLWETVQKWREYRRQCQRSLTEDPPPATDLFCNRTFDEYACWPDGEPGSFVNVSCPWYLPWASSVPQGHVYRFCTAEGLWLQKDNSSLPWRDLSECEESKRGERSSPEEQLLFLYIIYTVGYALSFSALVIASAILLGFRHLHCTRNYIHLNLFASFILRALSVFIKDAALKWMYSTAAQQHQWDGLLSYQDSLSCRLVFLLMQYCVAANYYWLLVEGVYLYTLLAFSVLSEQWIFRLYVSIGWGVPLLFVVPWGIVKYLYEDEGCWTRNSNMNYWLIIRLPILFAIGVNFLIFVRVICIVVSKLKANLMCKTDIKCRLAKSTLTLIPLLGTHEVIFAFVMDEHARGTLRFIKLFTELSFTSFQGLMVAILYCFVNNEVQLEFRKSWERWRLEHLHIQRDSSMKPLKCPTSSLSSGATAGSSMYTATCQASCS

[3] = target: T1, human GIPR (human), P48546; assay: [125I]GIP displacement, hGIPR VLP
human GLP-1R [4] = target: human GLP-1R (human, UniProt P43220); assay: cell-based or functional assay
human GLP-1R [5] = target: human GLP-1R (human, UniProt P43220); assay: cell-based or functional assay; remark: listed apart in the source

[NMeY][Aib]EGTFISDYSIALDRIAQQS[αMeF]VNWLLAQRPSSGAPPPSR (not fully specified (C-terminus); ends and bridges not checked) [Compound 71]
Agonist activity (EC50, M) [1]: 2.5e-12 M | Agonist activity (EC50, M) [2]: > 1e-06 M | IC50 [3]: 2.1 nM

[NMeY][Aib]EGTFISDYSIALDRIAQ[Aib]N[αMeF]VNWLLAQRPSSGAPPPSR (not fully specified (C-terminus); ends and bridges not checked) [Compound 72]
Agonist activity (EC50, M) [1]: 2.6e-12 M | Agonist activity (EC50, M) [2]: 2.3e-07 M | IC50 [3]: 2.7 nM

B1: Compound 6 (peptide)
peptide: Y[Aib]EGTVVSLYSI[Aib]LDKQAQ[Aib]EFVKWLLKGGPSSGAPPPSK-NH2
modifications: N-terminus assumed
SMILES: CC[C@H](C)[C@H](NC(=O)[C@H](CO)NC(=O)[C@H](Cc1ccc(O)cc1)NC(=O)[C@H](CC(C)C)NC(=O)[C@H](CO)NC(=O)[C@@H](NC(=O)[C@@H](NC(=O)[C@@H](NC(=O)CNC(=O)[C@H](CCC(=O)O)NC(=O)C(C)(C)NC(=O)[C@@H](N)Cc1ccc(O)cc1)[C@@H](C)O)C(C)C)C(C)C)C(=O)NC(C)(C)C(=O)N[C@@H](CC(C)C)C(=O)N[C@@H](CC(=O)O)C(=O)N[C@@H](CCCCN)C(=O)N[C@@H](CCC(N)=O)C(=O)N[C@@H](C)C(=O)N[C@@H](CCC(N)=O)C(=O)NC(C)(C)C(=O)N[C@@H](CCC(=O)O)C(=O)N[C@@H](Cc1ccccc1)C(=O)N[C@H](C(=O)N[C@@H](CCCCN)C(=O)N[C@@H](Cc1c[nH]c2ccccc12)C(=O)N[C@@H](CC(C)C)C(=O)N[C@@H](CC(C)C)C(=O)N[C@@H](CCCCN)C(=O)NCC(=O)NCC(=O)N1CCC[C@H]1C(=O)N[C@@H](CO)C(=O)N[C@@H](CO)C(=O)NCC(=O)N[C@@H](C)C(=O)N1CCC[C@H]1C(=O)N1CCC[C@H]1C(=O)N1CCC[C@H]1C(=O)N[C@@H](CO)C(=O)N[C@@H](CCCCN)C(N)=O)C(C)C
Agonist activity (EC50, M) (human GLP-1R [4]): > 1e-06 M

[NMeY][Aib]EGTFISDYSI[dIva]LDR[Aib]AQQDFVNWLLAQRPSSGAPPPSR (ends and bridges not checked) [Compound 79]
Agonist activity (EC50, M) [1]: 1.1e-12 M | Agonist activity (EC50, M) [2]: > 1e-06 M | IC50 [3]: 1.2 nM

[NMeY][Aib]EGTFISDYSI[dIva]LDRIAQ[Aib]NFVNW[Iva]LAQRPSSGAPPPSR (ends and bridges not checked) [Compound 92]
Agonist activity (EC50, M) [1]: 1.3e-12 M | Agonist activity (EC50, M) [2]: > 1e-06 M | IC50 [3]: 2.3 nM

B2: Compound 415 (peptide)
peptide: YXEGTXISDYSIXXDRXAQXNFVNWXLAQR
modifications: N-methyl on Tyr1 (MeTyr); Aib at 2, 13, 17, 20; Iva at 6, 26; Lys(Oda-GGGGG-) at 14; C-terminal NH2
Agonist activity (EC50, M) (human GLP-1R [5]): > 1e-06 M

B3: Compound 473 (peptide)
peptide: YXEGTXISDYSIXXDRXAQXNFVNWXLAQRPSSGAPPPSR
modifications: N-methyl on Tyr1 (Me-Tyr); Aib at 2, 13, 17, 20; Iva at 6, 26; Lys(Eda-GGGGG-) at 14; C-terminal NH2
Agonist activity (EC50, M) (human GLP-1R [5]): > 1e-06 M

B4: Compound 506 (peptide)
peptide: YXEGTXISDYSIXXDRXAQXNFVNWXLAQRPSSGAPPPSR
modifications: N-methyl on Tyr1 (Me-Tyr); Aib at 2, 13, 17, 20; Iva at 6, 26; Lys(Hepda-GGGGGG-) at 14; C-terminal NH2
Agonist activity (EC50, M) (human GLP-1R [5]): > 1e-06 M

B5: Compound 522 (peptide)
peptide: YXEGTFISDYSIAXDRXHQXNFVNWXLAQRPSSGAPPPSR
modifications: not fully specified; N-methyl on Tyr1 (Me-Tyr); Aib at 2, 13, 17, 20; Iva at 6, 26; Lys(Eda-GGGGGG-) at 14; C-terminal NH2
Agonist activity (EC50, M) (human GLP-1R [5]): > 1e-06 M

B6: Compound 479 (peptide)
peptide: YXEGTXISDYSIXXDRXAQXNFVNWXLAQRPSSGAPPPSR
modifications: N-methyl on Tyr1 (Me-Tyr); Aib at 2, 13, 17, 20; Iva at 6, 26; Lys(Oda-GGGGGG-) at 14; C-terminal NH2
Agonist activity (EC50, M) (human GLP-1R [5]): > 1e-06 M

B7: Compound 520 (peptide)
peptide: YXEGTXISDYSIXXDRXAQXNFVNWXLAQRPSSGAPPPSR
modifications: N-methyl on Tyr1 (Me-Tyr); Aib at 2, 13, 17, 20; Iva at 6, 26; Lys(Eda-GGGGGG-) at 14; C-terminal NH2
Agonist activity (EC50, M) (human GLP-1R [5]): > 1e-06 M

B8: Compound 435 (peptide)
peptide: YXEGTXISDYSIXXDRXAQXNFVNWXLAQRPSSGAPPPS
modifications: N-terminal acetyl (Ac-Tyr); Aib at 2, 13, 17, 20; Iva at 6, 26; Lys(Eda-GGGGG-) at 14; C-terminal NH2
Agonist activity (EC50, M) (human GLP-1R [5]): > 1e-06 M

B9: Compound 439 (peptide)
peptide: YXEGTXISDYSIXXDRXAQXNFVNWXLAQRPSSGAPPPS
modifications: N-methyl on Tyr1 (Me-Tyr); Aib at 2, 13, 17, 20; Iva at 6, 26; Lys(Oda-GGGGGG-) at 14; C-terminal NH2
Agonist activity (EC50, M) (human GLP-1R [5]): > 1e-06 M

B10: Compound 445 (peptide)
peptide: YXEGTXISDYSIXXDRXAQXNFVNWXLAQRPSSGAPPPS
modifications: N-methyl on Tyr1 (Me-Tyr); Aib at 2, 13, 17, 20; Iva at 6, 26; Lys(Heda-GGGGG-) at 14; C-terminal NH2
Agonist activity (EC50, M) (human GLP-1R [5]): > 1e-06 M

B11: Compound 484 (peptide)
peptide: YXEGTXISDYSIXXDRXHQXNFVNWXLAQRPSSGAPPPS
modifications: N-methyl on Tyr1 (Me-Tyr); Aib at 2, 13, 17, 20; Iva at 6, 26; Lys(Oda-GGGGGG-) at 14; C-terminal NH2
Agonist activity (EC50, M) (human GLP-1R [5]): > 1e-06 M

B12: Compound 508 (peptide)
peptide: YXEGTXISDYSIXXDRXHQXNFVNWXLAQRPSSGAPPPS
modifications: N-methyl on Tyr1 (Me-Tyr); Aib at 2, 13, 17, 20; Iva at 6, 26; Lys(Hepda-GGGGG-) at 14; C-terminal NH2
Agonist activity (EC50, M) (human GLP-1R [5]): > 1e-06 M

B13: Compound 509 (peptide)
peptide: YXEGTXISDYSIXXDRXHQXNFVNWXLAQRPSSGAPPPS
modifications: N-methyl on Tyr1 (Me-Tyr); Aib at 2, 13, 17, 20; Iva at 6, 26; Lys(Heda-GGGGGG-) at 14; C-terminal NH2
Agonist activity (EC50, M) (human GLP-1R [5]): > 1e-06 M
